Experimental data reported in IntAct's records for PubMed 22396542.

B1: Ceramide transfer protein (Homo sapiens), Q9Y5P4-2 (parent)
chain: MSDNQSWNSSGSEEDPETESGPPVERCGVLSKWTNYIHGWQDRWVVLKNNALSYYKSEDETEYGCRGSICLSKAVITPHDFDECRFDISVNDSVWYLRAQDPDHRQQWIDAIEQHKTESGYGSESSLRRHGSMVSLVSGASGYSATSTSSFKKGHSLREKLAEMETFRDILCRQVDTLQKYFDACADAVSKDELQRDKVVEDDEDDFPTTRSDGDFLHSTNGNKEKLFPHVTPKGINGIDFKGEAITFKATTAGILATLSHCIELMVKREDSWQKRLDKETEKKRRTEEAYKNAMTELKKKSHFGGPDYEEGPNSLINEEEFFDAVEAALDRQDKIEEQSQSEKVRLHWPTSLPSGDAFSSVGTHRFVQKVEEMVQNHMTYSLQDVGGDANWQLVVEEGEMKVYRREVEENGIVLDPLKATHAVKGVTGHEVCNYFWNVDVRNDWETTIENFHVVETLADNAIIIYQTHKRVWPASQRDVLYLSVIRKIPALTENDPETWIVCNFSVDHDSAPLNNRCVRAKINVAMICQTLVSPPEGNQEISRDNILCKITYVANVNPGGWAPASVLRAVAKREYPKFLKRFTSYVQEKTAGKPILF

Variants of: B1
Conditions: with samp_human APCS

Variant | effect of a mutation on the interaction
MSDNQSWNSSGSEEDPETESGPPVERCGVLSKWTNYIHGWQDRWVVLKNNALSYYKSEDETEYGCRGSICLSKAVITPHDFDECRFDISVNDSVWYLRAQDPDHRQQWIDAIEQHKTESGYGSESSLRRHGSMVSLVSGASGYSATSTSSFKKGHSLREKLAEMETFRDILCRQVDTLQKYFDACADAVSKDELQRDKVVEDDEDDFPTTRSDGDFLHSTNGNKEKLFPHVTPKGINGIDFKGEAITFKATTAGILATLSHCIELMVKREDSWQKRLDKETEKKRRTEEAYKNAMTELKKKSHFGGPDYEEGPNSLINEEEFFDAVEAALDRQDKIEEQSQSEKVRLHWPTSLPSGDAFSSVGTHRFVQKVEEMVQNHMTYSLQDVGGDANWQLVVEEGEMKVYRREVEENGAVLDPLKATHAVKGVTGHEVCNYFWNVDVRNDWETTIENFHVVETLADNAIIIYQTHKRVWPASQRDVLYLSVIRKIPALTENDPETWIVCNFSVDHDSAPLNNRCVRAKINVAMICQTLVSPPEGNQEISRDNILCKITYVANVNPGGAAPASVLRAVAKREYPKFLKRFTSYVQEKTAGKPILF [I413A;W562A] | decreasing interaction strength
MSDNQSWNSSGSEEDPETESGPPVERCGVLSKWTNYIHGWQDRWVVLKNNALSYYKSEDETEYGCRGSICLSKAVITPHDFDECRFDISVNDSVWYLRAQDPDHRQQWIDAIEQHKTESGYGSESSLRRHGSMVSLVSGASGYSATSTSSFKKGHSLREKLAEMETFRDILCRQVDTLQKYFDACADAVSKDELQRDKVVEDDEDDFPTTRSDGDFLHSTNGNKEKLFPHVTPKGINGIDFKGEAITFKATTAGILATLSHCIELMVKREDSWQKRLDKETEKKRRTEEAYKNAMTELKKKSHFGGPDYEEGPNSLINEEEFFDAVEAALDRQDKIEEQSQSEKVRLHWPTSLPSGDAFSSVGTHRFVQKVEEMVQNHMTYSLQDVGGDANWQLVVEEGEMKVYRREVEENGIVLDPLKATHAVKGVTGHEVCAAFWNVDVRNDWETTIENFHVVETLADNAIIIYQTHKRVWPASQRDVLYLSVIRKIPALTENDPETWIVCNFSVDHDSAPLNNRCVRAKINVAMICQTLVSPPEGNQEISRDNILCKITYVANVNPGGWAPASVLRAVAKREYPKFLKRFTSYVQEKTAGKPILF [N434A;Y435A] | with no effect
MSDNQSWNSSGSEEDPETESGPPVERCGVLSKWTNYIHGWQDRWVVLKNNALSYYKSEDETEYGCRGSICLSKAVITPHDFDECRFDISVNDSVWYLRAQDPDHRQQWIDAIEQHKTESGYGSESSLRRHGSMVSLVSGASGYSATSTSSFKKGHSLREKLAEMETFRDILCRQVDTLQKYFDACADAVSKDELQRDKVVEDDEDDFPTTRSDGDFLHSTNGNKEKLFPHVTPKGINGIDFKGEAITFKATTAGILATLSHCIELMVKREDSWQKRLDKETEKKRRTEEAYKNAMTELKKKSHFGGPDYEEGPNSLINEEEFFDAVEAALDRQDKIEEQSQSEKVRLHWPTSLPSGDAFSSVGTHRFVQKVEEMVQNHMTYSLQDVGGDANWQLVVEEGEMKVYRREVEENGIVLDPLKATHAVKGVTGHEVCNAAWNVDVRNDWETTIENFHVVETLADNAIIIYQTHKRVWPASQRDVLYLSVIRKIPALTENDPETWIVCNFSVDHDSAPLNNRCVRAKINVAMICQTLVSPPEGNQEISRDNILCKITYVANVNPGGWAPASVLRAVAKREYPKFLKRFTSYVQEKTAGKPILF [Y435A;F436A] | decreasing interaction strength
MSDNQSWNSSGSEEDPETESGPPVERCGVLSKWTNYIHGWQDRWVVLKNNALSYYKSEDETEYGCRGSICLSKAVITPHDFDECRFDISVNDSVWYLRAQDPDHRQQWIDAIEQHKTESGYGSESSLRRHGSMVSLVSGASGYSATSTSSFKKGHSLREKLAEMETFRDILCRQVDTLQKYFDACADAVSKDELQRDKVVEDDEDDFPTTRSDGDFLHSTNGNKEKLFPHVTPKGINGIDFKGEAITFKATTAGILATLSHCIELMVKREDSWQKRLDKETEKKRRTEEAYKNAMTELKKKSHFGGPDYEEGPNSLINEEEFFDAVEAALDRQDKIEEQSQSEKVRLHWPTSLPSGDAFSSVGTHRFVQKVEEMVQNHMTYSLQDVGGDANWQLVVEEGEMKVYRREVEENGIVLDPLKATHAVKGVTGHEVCNYFWNVDVRNDWETTIENFHVVETLADNAIIIYQTHKRAAPASQRDVLYLSVIRKIPALTENDPETWIVCNFSVDHDSAPLNNRCVRAKINVAMICQTLVSPPEGNQEISRDNILCKITYVANVNPGGWAPASVLRAVAKREYPKFLKRFTSYVQEKTAGKPILF [V472A;W473A] | with no effect
MSDNQSWNSSGSEEDPETESGPPVERCGVLSKWTNYIHGWQDRWVVLKNNALSYYKSEDETEYGCRGSICLSKAVITPHDFDECRFDISVNDSVWYLRAQDPDHRQQWIDAIEQHKTESGYGSESSLRRHGSMVSLVSGASGYSATSTSSFKKGHSLREKLAEMETFRDILCRQVDTLQKYFDACADAVSKDELQRDKVVEDDEDDFPTTRSDGDFLHSTNGNKEKLFPHVTPKGINGIDFKGEAITFKATTAGILATLSHCIELMVKREDSWQKRLDKETEKKRRTEEAYKNAMTELKKKSHFGGPDYEEGPNSLINEEEFFDAVEAALDRQDKIEEQSQSEKVRLHWPTSLPSGDAFSSVGTHRFVQKVEEMVQNHMTYSLQDVGGDANWQLVVEEGEMKVYRREVEENGIVLDPLKATHAVKGVTGHEVCNYFWNVDVRNDWETTIENFHVVETLADNAIIIYQTHKRVWGQSQRDVLYLSVIRKIPALTENDPETWIVCNFSVDHDSAPLNNRCVRAKINVAMICQTLVSPPEGNQEISRDNILCKITYVANVNPGGWAPASVLRAVAKREYPKFLKRFTSYVQEKTAGKPILF [P474G;A475Q] | disrupting interaction strength

Variants of: B1
Conditions: with samp_human APCS
Remark: another data set of the same source

Variant | effect of a mutation on the interaction
MSDNQSWNSSGSEEDPETESGPPVERCGVLSKWTNYIHGWQDRWVVLKNNALSYYKSEDETEYGCRGSICLSKAVITPHDFDECRFDISVNDSVWYLRAQDPDHRQQWIDAIEQHKTESGYGSESSLRRHGSMVSLVSGASGYSATSTSSFKKGHSLREKLAEMETFRDILCRQVDTLQKYFDACADAVSKDELQRDKVVEDDEDDFPTTRSDGDFLHSTNGNKEKLFPHVTPKGINGIDFKGEAITFKATTAGILATLSHCIELMVKREDSWQKRLDKETEKKRRTEEAYKNAMTELKKKSHFGGPDYEEGPNSLINEEEFFDAVEAALDRQDKIEEQSQSEKVRLHWPTSLPSGDAFSSVGTHRFVQKVEEMVQNHMTYSLQDVGGDANWQLVVEEGEMKVYRREVEENGIVLDPLKATHAVKGVTGHEVCAAFWNVDVRNDWETTIENFHVVETLADNAIIIYQTHKRVWPASQRDVLYLSVIRKIPALTENDPETWIVCNFSVDHDSAPLNNRCVRAKINVAMICQTLVSPPEGNQEISRDNILCKITYVANVNPGGWAPASVLRAVAKREYPKFLKRFTSYVQEKTAGKPILF [N434A;Y435A] | decreasing interaction strength
